This assay relates to olfactory receptor (OR X). In words: Luciferase reporter assay using olfactory receptor-expressing HEK293T cells, effect of concurrent addition of LCN15. The assay is classed as cell-based, human. Conditions: mixed solution of isovaleric acid (30 μM) and LCN15 (1 μM) compared to isovaleric acid (30 μM) alone; 3 hours, 37° C. The text has this: A human olfactory receptor gene was cloned by a PCR method using a human olfactory receptor gene purchased from TrueClone cDNA Clone Collection (OriGene) as a template base on sequence information registered in GenBank. Each gene amplified by the PCR method was subcloned into downstream of a Rho tag sequence of a Rho-pME18S vector (K. Kajiya et al., Journal of Neuroscience, 15 Aug. 2001, 21 (16) 6018-6025, which is incorporated herein by reference in its entirety) using EcoRI and XhoI sites to obtain an expression vector for the human olfactory receptor.
HEK293T cells that expressed the olfactory receptor (OR X) was prepared by the following procedure. […]
The olfactory receptor (OR X) expressed on HEK293T cells is conjugated with Golf to activate adenylate cyclase, thereby increases an amount of intracellular cAMP. In this Example, the measurement for response of the olfactory receptor to a test substance employed luciferase reporter gene assay in which increase of the amount of intracellular cAMP was monitored as increase of a luminescence value derived from firefly luciferase. […] In conjugation with this, a luminescence value derived from Renilla luciferase was used as an internal standard for correcting errors of a gene transfer efficiency and a cell number in each well. […]

B1: lipocalin 15 (protein, listed as Homo sapiens)
chain: MEVLLQPDFNAEKFSGLWYVVSMASDCRVFLGKKDHLSMSTRAIRPTEEGGLHVHMEFPGADGCNQVDAEYLKVGSEGHFRVPALGYLDVRIVDTDYSSFAVLYIYKELEGALSTMVQLYSRTQDVSPQALKSFQDFYPTLGLPKDMMVMLPQSDACNPESKEAP
notes: secreted protein produced in the olfactory mucosa and secreted into the olfactory mucus; recombinant hLCN15 prepared in E. coli
Regarding B1, the “response intensity of the olfactory receptor (Luc/hRLuc value)” value is recorded as “more enhanced”.

The values above are taken from patent publication US20210239714A1, “TEST METHOD FOR OLFACTORY MUCOSA OR OLFACTORY MUCUS IN MAMMALS” (Ajinomoto Co., Inc., priority 2018, published 2021).
